We go through 26 molecules from article PMC10786891, “Massively parallel profiling of RNA-targeting CRISPR-Cas13d”.

Numbering of substitutions follows the chain as printed. Names and notes keep the numbering of the source.

First the molecules themselves.
T1: EsCas13d, nuclease-dead (Eubacterium siraeum, UniProt B0MS50, R295A;H300A;R849A;H854A)
T1 sequence: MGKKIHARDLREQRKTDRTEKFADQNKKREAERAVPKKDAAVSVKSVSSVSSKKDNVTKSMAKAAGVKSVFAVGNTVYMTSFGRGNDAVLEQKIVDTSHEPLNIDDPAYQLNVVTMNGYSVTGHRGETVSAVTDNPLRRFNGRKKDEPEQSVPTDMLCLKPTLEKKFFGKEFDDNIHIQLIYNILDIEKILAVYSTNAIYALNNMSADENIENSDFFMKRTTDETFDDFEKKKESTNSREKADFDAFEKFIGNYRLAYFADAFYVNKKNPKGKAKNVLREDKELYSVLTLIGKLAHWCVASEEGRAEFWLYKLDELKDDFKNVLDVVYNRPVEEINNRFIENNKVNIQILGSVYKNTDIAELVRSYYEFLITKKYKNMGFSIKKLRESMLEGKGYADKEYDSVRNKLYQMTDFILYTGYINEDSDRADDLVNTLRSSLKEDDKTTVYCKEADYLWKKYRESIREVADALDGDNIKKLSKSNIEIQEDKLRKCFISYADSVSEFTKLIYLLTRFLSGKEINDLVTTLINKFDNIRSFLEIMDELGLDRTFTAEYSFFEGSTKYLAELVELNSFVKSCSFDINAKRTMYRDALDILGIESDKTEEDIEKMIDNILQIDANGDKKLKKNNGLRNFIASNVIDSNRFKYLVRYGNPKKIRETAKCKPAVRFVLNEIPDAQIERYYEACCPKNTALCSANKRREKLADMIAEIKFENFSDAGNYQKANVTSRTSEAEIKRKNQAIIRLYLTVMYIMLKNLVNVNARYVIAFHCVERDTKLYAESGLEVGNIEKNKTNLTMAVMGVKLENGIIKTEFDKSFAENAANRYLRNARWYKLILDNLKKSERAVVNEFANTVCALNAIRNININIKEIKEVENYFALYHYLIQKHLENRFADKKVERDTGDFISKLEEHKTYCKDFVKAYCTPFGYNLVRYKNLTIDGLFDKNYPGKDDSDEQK

B1: target 1 A9G,U10C (mixed)
RNA 1: CACCCGUGCAAAAAUGCAGGGGUCUAAAACUGAGCGGAUAACCUCUCUAUGG
RNA 2: GGGAAUGGAUCCACAUCUACGAAUUCGUACCAUAGAGAGGUCGUCCGCUCACCGAGAUCGGAAGAGCACACGU
B2: target 1 insC 3' of 16,insC 3' of 14 (mixed)
RNA 1: B1 RNA 1
RNA 2: GGGAAUGGAUCCACAUCUACGAAUUCGUACCAUAGACGACGGUUAUCCGCUCACCGAGAUCGGAAGAGCACACGU
B3: target 3 insA 3' of 19 (mixed)
RNA 1: CACCCGUGCAAAAUUGCAGGGGUCUAAAACGACCUGAAUAUUUCAGAUCAAA
RNA 2: GGGAAUGGAUCCACAUCUACGAAUUCGUUUUUGAAUCUGAAAUAUUCAGGUCUGCAGAUCGGAAGAGCACACGU
B4: target 3 insC 3' of 4,insA 3' of 1 (mixed)
RNA 1: B3 RNA 1
RNA 2: GGGAAUGGAUCCACAUCUACGAAUUCGUUUUUGAUCUGAAAUAUUCAGCGUCAUGCAGAUCGGAAGAGCACACGU
B5: target 3 C6A,A11C (mixed)
RNA 1: B3 RNA 1
RNA 2: GGGAAUGGAUCCACAUCUACGAAUUCGUUUUUGAUCUGAACUAUUAAGGUCUGCAGAUCGGAAGAGCACACGU
B6: target 3 insA 3' of 10,insA 3' of 7 (mixed)
RNA 1: B3 RNA 1
RNA 2: B4 RNA 2 with U44A, C46U, G48C, C49A, U51G, C52U, A53C
B7: target 3 U2A,U20C (mixed)
RNA 1: B3 RNA 1
RNA 2: B5 RNA 2 with U32C, C41A, A46C, U50A
B8: target 3 insU 3' of 5,insG 3' of 2 (mixed)
RNA 1: B3 RNA 1
RNA 2: B4 RNA 2 with G48U, C49G, C52G, A53C
B9: target 3 C6U (mixed)
RNA 1: B3 RNA 1
RNA 2: B5 RNA 2 with C41A, A46U
B10: target 3 G4U,U21A (mixed)
RNA 1: B3 RNA 1
RNA 2: B5 RNA 2 with U31A, C41A, A46C, G48U
B11: target 3 insC 3' of 7,insA 3' of 6 (mixed)
RNA 1: B3 RNA 1
RNA 2: B4 RNA 2 with A47C, G48A, C49A, U51G, C52U, A53C
B12: target 3 C1A,G14U (mixed)
RNA 1: B3 RNA 1
RNA 2: B5 RNA 2 with G38U, C41A, A46C, C51A
B13: target 3 insA 3' of 22,insU 3' of 16 (mixed)
RNA 1: B3 RNA 1
RNA 2: GGGAAUGGAUCCACAUCUACGAAUUCGUUUAUUGAUCUUGAAAUAUUCAGGUCUGCAGAUCGGAAGAGCACACGU
B14: target 3 insG 3' of 5,insG 3' of 2 (mixed)
RNA 1: B3 RNA 1
RNA 2: B4 RNA 2 with C49G, C52G, A53C
B15: target 3 del1,del14 (mixed)
RNA 1: B3 RNA 1
RNA 2: GGGAAUGGAUCCACAUCUACGAAUUCGUUUUUGAUCUAAAUAUUCAGGUUGCAGAUCGGAAGAGCACACGU
B16: target 3 insA 3' of 3,insC 3' of 2 (mixed)
RNA 1: B3 RNA 1
RNA 2: B4 RNA 2 with C49G, G50A, A53C
B17: target 3 insC 3' of 4,insC 3' of 2 (mixed)
RNA 1: B3 RNA 1
RNA 2: B4 RNA 2 with A53C
B18: target 3 insC 3' of 8,insG 3' of 5 (mixed)
RNA 1: B3 RNA 1
RNA 2: B4 RNA 2 with U45C, C46U, A47C, G48A, C49G, U51G, C52U, A53C
B19: target 3 A5U,A11G (mixed)
RNA 1: B3 RNA 1
RNA 2: B5 RNA 2 with C41G, A46C, A47U
B20: target 3 insG 3' of 9,insU 3' of 3 (mixed)
RNA 1: B3 RNA 1
RNA 2: B4 RNA 2 with U44G, C46U, A47C, G48A, C49G, C52U, A53C
B21: target 3 del6,del8 (mixed)
RNA 1: B3 RNA 1
RNA 2: B15 RNA 2 with A38G, U41A, A42U, U43A, C45A, A46G, G48U, U49C
B22: target 3 insG 3' of 5,insC 3' of 5 (mixed)
RNA 1: B3 RNA 1
RNA 2: B4 RNA 2 with U51G, C52U, A53C
B23: target 3 G4C,U7A (mixed)
RNA 1: B3 RNA 1
RNA 2: B5 RNA 2 with C41A, U45A, A46C, G48C
B24: target 3 del1,del2 (mixed)
RNA 1: B3 RNA 1
RNA 2: B15 RNA 2 with A38G, U41A, A42U, U43A, C45U, A46C, G47A, U49G
B25: target 3 insG 3' of 8,insC 3' of 7 (mixed)
RNA 1: B3 RNA 1
RNA 2: B4 RNA 2 with U45G, C46U, A47C, G48C, C49A, U51G, C52U, A53C
B26: target 3 G19U,U22G (mixed)
RNA 1: B3 RNA 1
RNA 2: B5 RNA 2 with U30G, G33U, C41A, A46C

The term Kd denotes the equilibrium constant for the complex coming apart. High values mean weaker binding, low ones tighter binding.

For this data set, the target named is T1, EsCas13d, nuclease-dead. Description: crRNA (strand 1, pre-loaded); Mg2+; 40 mM Tris-HCl pH 7.5, 150 mM NaCl, 6 mM MgCl2, 1 mM DTT, 0.1% Tween-20, 0.2 mg/ml BSA; 25 C; 10 min per concentration, then washed. The settings on record: tags: His6-TwinStrep-SUMO cleaved; N-terminal SNAP kept (SNAP-Surface 488); label: 3' end held by stalled T7 RNA polymerase.
B1 came in with a Kd of 27.2 ± 1.4 nM. Take B2: the Kd turned out to be 75 ± 19 nM. This Kd is about 2.8-fold higher than that of the molecule before.

In turn, B3 had a Kd of 83 ± 21.5 nM. Regarding B4, binding was characterised by a dissociation constant (Kd) of 69.5 ± 28.5 nM. B5 returned a Kd of 45.2 ± 11.2 nM. In the case of B6 it was 52 ± 8 nM; in that of B7, 74.5 ± 24 nM.

Turning to B8, the Kd turned out to be 6.95 ± 1 nM. This Kd lies about 11-fold lower than the previous one.

In turn, B9 returned a Kd of 13.2 ± 1.05 nM. Compared with the last molecule, the Kd is about 1.9-fold higher. In the case of B10 it was 20.6 ± 2.15 nM; in that of B11, 76 ± 14 nM. In the case of B12 it was 79 ± 30.5 nM; in that of B13, 71 ± 14 nM. B14 had a Kd of 26.6 ± 4.1 nM.

Turning to B15, the Kd came to 110 ± 55 nM. The same measure for B16: 120 ± 50 nM; for B17: 73 ± 24 nM. In the case of B18 it was 120 ± 50 nM; in that of B19, 100 ± 45 nM; in that of B20, 43.5 ± 7 nM. The molecule B21 displayed a Kd of 70.5 ± 11 nM. In the case of B22 it was 32.7 ± 4.05 nM.

B23: the Kd was determined as 27.6 ± 3.05 nM. The same measure for B24: 44.5 ± 2.55 nM; for B25: 57 ± 9 nM.

Consider B26, for which the Kd was 108 ± 15 nM. Compared with the last molecule, the Kd is about 1.9-fold higher.
